Consider 19 molecules from US20030087827A1 (BOARD OF SUPERVISORS OF LOUISIANA STATE UNIVERSITY AND …, published 2003).

Read-outs that look alike come from different tables or passages of the source. Non-standard residues stand in square brackets, D forms with d. No end group written: not given here.

By Ki is commonly meant the dissociation constant of the complex between target and ligand, obtained from inhibition or displacement.

Experiment [1] concerns the target T1, proprotein convertase PACE4.
T1 construct: Partially purified preparation
T1 sequence (P29122 150-969, species assumed, looked up): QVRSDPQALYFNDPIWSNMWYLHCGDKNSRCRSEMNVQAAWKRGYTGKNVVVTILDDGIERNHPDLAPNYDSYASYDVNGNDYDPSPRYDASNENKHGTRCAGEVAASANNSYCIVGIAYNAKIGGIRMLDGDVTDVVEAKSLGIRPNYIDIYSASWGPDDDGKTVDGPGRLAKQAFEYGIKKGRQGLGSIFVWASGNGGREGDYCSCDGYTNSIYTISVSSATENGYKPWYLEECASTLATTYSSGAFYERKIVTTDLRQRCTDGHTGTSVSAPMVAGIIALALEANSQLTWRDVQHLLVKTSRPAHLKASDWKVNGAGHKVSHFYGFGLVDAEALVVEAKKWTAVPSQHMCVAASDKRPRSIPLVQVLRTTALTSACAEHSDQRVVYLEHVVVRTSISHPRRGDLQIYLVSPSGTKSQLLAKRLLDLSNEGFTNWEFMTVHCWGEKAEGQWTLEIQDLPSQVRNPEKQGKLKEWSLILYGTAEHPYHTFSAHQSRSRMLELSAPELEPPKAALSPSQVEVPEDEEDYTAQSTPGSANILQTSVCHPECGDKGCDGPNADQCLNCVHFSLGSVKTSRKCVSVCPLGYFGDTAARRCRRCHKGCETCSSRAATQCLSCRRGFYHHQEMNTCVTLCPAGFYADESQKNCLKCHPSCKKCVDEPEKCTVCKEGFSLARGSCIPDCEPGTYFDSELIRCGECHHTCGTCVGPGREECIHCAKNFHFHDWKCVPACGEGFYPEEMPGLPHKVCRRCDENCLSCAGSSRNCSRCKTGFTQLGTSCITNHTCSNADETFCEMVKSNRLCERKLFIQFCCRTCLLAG
Kind of experiment: enzyme inhibition, pERTKR-MCA hydrolysis (fluorescence), competitive Ki. An excerpt: (§1) Inhibition of Furin, PACE4, PC1 and PC2 by Different L-Polyarginine Peptides.
(§2) Each value represents the mean ± S.D. determined from three independent experiments.

Experiment [2] addresses T2, recombinant truncated mouse furin (mouse, UniProt P23188 108-714, N-glycosylated at two of three potential sites).
T2 construct: extracellular domain; Purified by ion exchange and gel permeation; also called recombinant furin; recombinant mouse furin
The experiment is described as above.
From the text: as §1, §2

The target of experiment [3] is T3, proprotein convertase PC1.
T3 construct: also called PC3
T3 sequence (P63239 111-753): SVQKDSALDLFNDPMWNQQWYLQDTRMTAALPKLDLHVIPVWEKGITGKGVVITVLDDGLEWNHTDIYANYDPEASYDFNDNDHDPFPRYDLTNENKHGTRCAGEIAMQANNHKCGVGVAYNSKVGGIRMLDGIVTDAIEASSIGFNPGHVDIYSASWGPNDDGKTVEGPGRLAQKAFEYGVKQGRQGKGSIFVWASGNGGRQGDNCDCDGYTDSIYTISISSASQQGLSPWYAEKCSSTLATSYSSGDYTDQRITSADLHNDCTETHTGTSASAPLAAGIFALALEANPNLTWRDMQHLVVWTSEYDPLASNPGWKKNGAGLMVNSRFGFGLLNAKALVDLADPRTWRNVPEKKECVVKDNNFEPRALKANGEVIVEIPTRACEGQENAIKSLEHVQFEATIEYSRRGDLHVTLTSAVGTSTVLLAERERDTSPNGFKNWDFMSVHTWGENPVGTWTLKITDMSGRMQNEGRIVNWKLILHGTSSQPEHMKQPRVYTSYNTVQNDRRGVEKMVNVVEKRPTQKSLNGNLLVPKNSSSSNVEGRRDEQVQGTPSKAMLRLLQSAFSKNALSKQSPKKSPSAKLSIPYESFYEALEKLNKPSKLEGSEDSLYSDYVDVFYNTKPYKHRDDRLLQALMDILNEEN
The experiment is described as above.
From the text: as §1, §2

Experiment [4] addresses T2, recombinant truncated mouse furin. The experiment is described as above.
From the text: (§3) The Effect of N-Terminal Acetyl and C-Terminal Amide Groups on Inhibition. We also examined the effect of the terminal acetyl and amide modifications on inhibitory potency.
as §2
The source holds these as a separate data set.

The target of experiment [5] is T4, proprotein convertase PC2.
T4 sequence (P16519 110-638, species assumed, looked up): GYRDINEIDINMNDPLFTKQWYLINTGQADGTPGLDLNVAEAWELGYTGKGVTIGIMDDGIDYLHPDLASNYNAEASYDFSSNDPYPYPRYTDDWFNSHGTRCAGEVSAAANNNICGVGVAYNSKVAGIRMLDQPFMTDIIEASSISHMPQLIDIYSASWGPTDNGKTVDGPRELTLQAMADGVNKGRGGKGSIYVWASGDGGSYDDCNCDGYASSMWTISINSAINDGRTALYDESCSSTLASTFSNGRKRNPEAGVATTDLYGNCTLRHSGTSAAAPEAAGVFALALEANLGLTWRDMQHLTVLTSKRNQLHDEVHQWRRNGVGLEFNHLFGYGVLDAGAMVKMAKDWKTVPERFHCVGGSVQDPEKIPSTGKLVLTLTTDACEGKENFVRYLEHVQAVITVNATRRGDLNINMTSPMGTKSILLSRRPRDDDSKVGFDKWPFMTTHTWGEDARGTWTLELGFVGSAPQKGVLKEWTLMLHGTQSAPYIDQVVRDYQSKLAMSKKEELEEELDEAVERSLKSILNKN
Described as above.
From the text: as §3, §2

Experiment [6] deals with T2, recombinant truncated mouse furin. Kind of experiment: enzyme inhibition, pERTKR-MCA hydrolysis, ratio of Ki.
For experiment [7], the target named is T1, proprotein convertase PACE4. The description is as above.
Experiment [8] deals with T4, proprotein convertase PC2. Described as above.
In experiment [9] the target is T2, recombinant truncated mouse furin. As to the kind of experiment: enzyme inhibition, pERTKR-MCA hydrolysis (fluorescence), competitive Ki.
From the text: as §2
The source holds these as a separate data set.

The target of experiment [10] is T4, proprotein convertase PC2. The description is as above.
From the text: as §2
This is another data set of the same source.

Experiment [11] concerns the target T3, proprotein convertase PC1. As to the kind of experiment: enzyme inhibition, pERTKR-MCA hydrolysis, ratio of Ki.

T2 sequence (P23188 108-714): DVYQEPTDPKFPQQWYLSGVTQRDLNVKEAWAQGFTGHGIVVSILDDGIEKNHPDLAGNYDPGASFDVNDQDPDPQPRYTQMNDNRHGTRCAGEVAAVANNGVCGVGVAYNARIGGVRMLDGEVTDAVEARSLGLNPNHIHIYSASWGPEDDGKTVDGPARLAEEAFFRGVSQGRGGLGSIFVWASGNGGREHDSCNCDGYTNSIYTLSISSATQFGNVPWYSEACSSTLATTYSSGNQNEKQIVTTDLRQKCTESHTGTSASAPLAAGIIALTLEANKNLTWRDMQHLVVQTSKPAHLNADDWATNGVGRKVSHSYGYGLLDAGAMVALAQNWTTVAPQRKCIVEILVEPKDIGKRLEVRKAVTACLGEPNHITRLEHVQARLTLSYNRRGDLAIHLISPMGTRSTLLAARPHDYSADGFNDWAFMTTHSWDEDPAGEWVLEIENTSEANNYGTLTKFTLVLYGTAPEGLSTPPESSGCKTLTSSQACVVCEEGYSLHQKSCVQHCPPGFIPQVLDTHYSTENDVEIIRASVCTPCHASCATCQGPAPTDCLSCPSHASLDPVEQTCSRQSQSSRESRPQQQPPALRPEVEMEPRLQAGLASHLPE

B1: Nona-L-arginine (peptide)
peptide: RRRRRRRRR
notes: no terminal modifications; also called nonamer
Turning to B1, the results for the Ki in [1], in [2] and in experiment [3] were 0.11 µM, 0.042 µM and 12 µM, respectively.

B2: LLRVKR (peptide)
peptide: H-LLRVKR-OH
notes: L-hexapeptide without terminal groups; also called unmodified LLRVKR
B2: the Ki is 0.42 µM in experiment [4] and 3.7 µM in experiment [5]. Moreover, in experiment [6], the “fold increase in inhibitory potency against the amidated and acetylated peptide Ac-LLRVKR-NH2” value was found to be 8 fold.

On to H-LLRVKR-NH2 (L-hexapeptide, free N-terminus) [LLRVKR-NH2], for which the results for the Ki in experiment [4] and in [5] were 0.8 µM and 2.3 µM, respectively.

For Ac-LLRVKR-OH (L-hexapeptide, free C-terminus) [Ac-LLRVKR], the inhibitory constant (Ki) was determined as 3.5 µM in [4] and 1.3 µM in experiment [5].

B3: Hepta-L-arginine (peptide)
peptide: RRRRRRR
notes: no terminal modifications; also called heptamer
As for B3, the results for the inhibition constant Ki in [1], in experiment [2] and in [3] were 0.24 µM, 0.068 µM and 5.2 µM, respectively.

B4: Penta-L-arginine (peptide)
peptide: RRRRR
notes: no terminal modifications; also called pentamer; pentameric polyarginine
On to B4, for which the results for the Ki in experiment [1], in [2] and in [3] were 0.98 µM, 0.99 µM and 14 µM, respectively. For the same molecule, in experiment [7], the “ratio of Ki to that of the hexamer (SEQ ID NO 14)” value is roughly 2 fold. The “fold increase in Ki against the hexamer (hexa-L-arginine)” value in [6] was roughly 10 fold.

B5: Tetra-L-arginine (peptide)
peptide: H-RRRR-OH
notes: no terminal modifications; also called tetramer
On to B5, for which the values for the Ki in experiment [1], in experiment [2] and in experiment [3] were greater than 200 µM, 6.4 µM and greater than 200 µM, respectively. The “fold increase in Ki against the pentamer (penta-L-arginine)” value in experiment [6] was roughly 5 fold.

B6: Ac-LLRVKR-NH2 (peptide)
peptide: Ac-LLRVKR-NH2
notes: L-hexapeptide; also called acetylated and amidated LLRVKR
B6: the inhibitory constant (Ki) was determined as 3.4 µM in experiment [4] and 1 µM in experiment [5]. For the same molecule, the “fold smaller Ki than the unmodified peptide LLRVKR” value in experiment [8] was roughly 4 fold.

Regarding Ac-RRKRRR-NH2 [Ac-RRKRRR-NH2], the Ki in [9] is 1.3 µM; in experiment [10], 461 µM.

B7: Hexa-L-arginine (peptide)
peptide: H-RRRRRR-OH
notes: no terminal modifications; also called hexamer
Take B7: the Ki was determined as 0.52 µM in [1], 0.114 µM in experiment [2] and 3.9 µM in [3].

Consider Ac-KRKRRR-NH2 (L-hexapeptide) [Ac-KRKRRR-NH2], for which the Ki was 1.6 µM in [9] and 391 µM in experiment [10].

For Ac-HRKRRR-NH2 (L-hexapeptide) [Ac-HRKRRR-NH2], the results for the Ki in experiment [9] and in experiment [10] were 2.1 µM and 309 µM, respectively.

Regarding Ac-HHKRRR-NH2 (L-hexapeptide) [Ac-HHKRRR-NH2], the Ki in [9] is 13.2 µM; in experiment [10], 235 µM.

For Ac-RHKRRR-NH2 (L-hexapeptide) [Ac-RHKRRR-NH2], the Ki in [9] is 3.4 µM; in experiment [10] it was 152 µM.

Turning to Ac-KHKRRR-NH2 (L-hexapeptide) [Ac-KHKRRR-NH2], the Ki is 5.2 µM in experiment [9] and 280 µM in [10].

With [dR][dR][dR][dR][dR][dR] (also called D6R; D-hexa-arginine) [Hexa-D-arginine], the Ki in experiment [1] was 0.58 µM; in experiment [2] it was 0.106 µM; in experiment [3], 13 µM. For the same molecule, the “fold increase in Ki against hexa-L-arginine” value in experiment [11] stood at 3 fold.

As for Ac-MRKRRR-NH2 (L-hexapeptide) [Ac-MRKRRR-NH2], in experiment [9], the Ki was found to be 2.3 µM.

For the molecule Ac-MHKRRR-NH2 (L-hexapeptide) [Ac-MHKRRR-NH2], the Ki in [9] was determined as 10.3 µM; in experiment [10] it was 216 µM.

B8: Octa-L-arginine (peptide)
peptide: RRRRRRRR
notes: no terminal modifications; also called octamer
For B8, the inhibition constant Ki in [1] worked out at 0.15 µM; in experiment [2] it was 0.061 µM; in [3], 5.1 µM.
